The values below come from US20240301052A1 (LANOVA MEDICINES DEVELOPMENT, published 2024).

For assay [1], the target named is T1, human SLC34A2 (human, UniProt O95436 1-690).
T1 construct: whole, on cells; also called human solute carrier 34 A2; NaPi2b
T1 sequence (looked up): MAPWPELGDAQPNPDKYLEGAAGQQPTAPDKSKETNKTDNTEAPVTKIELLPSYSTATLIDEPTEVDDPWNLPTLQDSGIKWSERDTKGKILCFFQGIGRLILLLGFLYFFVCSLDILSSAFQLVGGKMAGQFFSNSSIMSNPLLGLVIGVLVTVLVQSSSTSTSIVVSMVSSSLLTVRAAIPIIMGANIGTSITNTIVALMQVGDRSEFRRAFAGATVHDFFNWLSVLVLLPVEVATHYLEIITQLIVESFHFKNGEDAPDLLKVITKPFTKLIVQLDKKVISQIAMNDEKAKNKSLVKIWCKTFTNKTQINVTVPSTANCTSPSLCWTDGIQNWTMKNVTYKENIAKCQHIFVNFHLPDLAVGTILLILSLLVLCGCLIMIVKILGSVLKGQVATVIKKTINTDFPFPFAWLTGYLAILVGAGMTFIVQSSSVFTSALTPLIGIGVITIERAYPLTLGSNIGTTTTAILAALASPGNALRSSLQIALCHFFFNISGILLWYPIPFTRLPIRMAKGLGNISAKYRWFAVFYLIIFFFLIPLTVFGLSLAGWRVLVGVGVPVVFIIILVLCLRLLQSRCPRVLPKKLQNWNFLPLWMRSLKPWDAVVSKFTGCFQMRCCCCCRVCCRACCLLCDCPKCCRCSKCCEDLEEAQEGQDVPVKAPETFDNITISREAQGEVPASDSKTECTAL
The assay can be described thus: FACS, RMG-1 cells.

The target of assay [2] is T1, human SLC34A2. As to the kind of experiment: FACS, HEK293/human SLC34A2 cells. The method, boiled down:
(§1)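 Cell-surface binding by flow cytometry: hu Abs on SLC34A2-expressing cells, 60 min at 4° C.; 2× FACS buffer wash; fluorescent-conjugated secondary 30 min at 4° C.; 2× wash, then acquisition.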
For orientation: A flow cytometer gives signals particle by particle.

Assay [3] addresses T1, human SLC34A2. The assay can be described thus: FACS, RMG-1 cells. The method, boiled down:
as §1
This is another data set of the same source.

Assay [4] addresses T2, Rhesus SLC34A2 (Rhesus, UniProt F7HDA3 1-690).
T2 construct: whole, on cells
T2 sequence: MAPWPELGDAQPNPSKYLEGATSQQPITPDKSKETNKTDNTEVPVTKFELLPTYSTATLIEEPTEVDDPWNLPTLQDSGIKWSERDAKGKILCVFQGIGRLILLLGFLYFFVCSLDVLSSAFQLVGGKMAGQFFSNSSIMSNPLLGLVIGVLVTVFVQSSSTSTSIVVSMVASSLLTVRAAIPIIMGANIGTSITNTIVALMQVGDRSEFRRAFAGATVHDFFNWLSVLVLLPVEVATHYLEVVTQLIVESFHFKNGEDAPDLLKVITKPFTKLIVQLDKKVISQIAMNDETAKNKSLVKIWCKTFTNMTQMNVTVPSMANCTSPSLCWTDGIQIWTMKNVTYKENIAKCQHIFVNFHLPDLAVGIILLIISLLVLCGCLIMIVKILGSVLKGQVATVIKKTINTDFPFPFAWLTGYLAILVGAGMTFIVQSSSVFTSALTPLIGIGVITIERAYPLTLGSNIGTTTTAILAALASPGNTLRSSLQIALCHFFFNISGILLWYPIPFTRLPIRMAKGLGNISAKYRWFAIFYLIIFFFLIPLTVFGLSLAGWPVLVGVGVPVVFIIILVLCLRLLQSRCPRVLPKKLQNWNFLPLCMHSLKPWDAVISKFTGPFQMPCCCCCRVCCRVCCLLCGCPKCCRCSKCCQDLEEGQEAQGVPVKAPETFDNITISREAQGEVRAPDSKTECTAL
As to the kind of experiment: FACS, HEK293/Rhesus SLC34A2 cells.

For assay [5], the target named is T1, human SLC34A2. As to the kind of experiment: FACS, OVCAR3 cells. The method, boiled down: as §1
For assay [6], the target named is T1, human SLC34A2. As to the kind of experiment: cell-based or functional assay.

As usually defined, the EC50 is the concentration at which the effect is half-maximal.

B1: 30H9B8F9.p1.z5 hIgG1 (antibody, V domains shown)
VH: QVQLVQSGAEVKKPGASVKVSCKTSGYTFTTNNMHWVRQAPGQGLEWIGAIYPGSGATAYNQKFKGRVTMTADTSTSTVYMELSSLRSEDTAVYYCARGMYGHGAMDYWGQGTLVTVSS
VL: DIQLTQSPSFLSASVGDRVTITCKASQDVGTAVAWYQQKPGKAPKLLIYWATTRHSGVPSRFSGSGSGTEFTLTISSLQPEDFATYYCQQYSSNPLTFGQGTKLEIK
notes: humanized hIgG1
On to B1, for which the 50% effective concentration (EC50) in assay [1] turned out to be 1.4 nM; in assay [2], 1.55 nM; in assay [3], 1.39 nM; in assay [4], 0.7 nM; in assay [5], 0.94 nM. In addition, the Top in assay [2] came out at 35200 MFI; in assay [3] it was 10900 MFI. The “Top (MFI)” value in assay [4] stood at 16000 MFI. Besides, the “ADCC reporter EC50” value in assay [6] turned out to be 0.72 nM. Further, the “ADCC reporter Top (MFI)” value in assay [6] was 135000 MFI.

B2: 91C9F1.p1.z7 hIgG1 (antibody, V domains shown)
VH: QVQLVQSGAEVKKPGSSVKVSCKTSGFFFTEYIIHWVRQAPGQGLEWIGGIIPNNDVTNYKQNFRGRVTLTADKSTSTAYMELSSLRSEDTAVYYCARWRNAYYSAMDSWGQGTTVTVSS
VL: DIQVTQSPSSLSTSVGDRVTITCTASQDVGTAVAWYQQKPGKSPKLLIYWASTRHTGVPERFTGSGSGTDFTLTISSVQPEDVATYFCQQYRTSPLTFGVGTKVEIK
notes: humanized hIgG1
In the case of B2, the concentration giving a half-maximal response (EC50) in assay [1] worked out at 2.3 nM; in assay [2], 1.67 nM; in assay [3], 2.25 nM; in assay [4], 4.2 nM; in assay [5] it was 2.41 nM. For the same molecule, the values for the Top in assay [2], in assay [3] and in assay [5] were 37400 MFI, 9720 MFI and 20500 MFI, respectively. Also, the “Top (MFI)” value in assay [4] was 9500 MFI. In addition, the “ADCC reporter EC50” value in assay [6] worked out at 2.12 nM. In addition, the “ADCC reporter Top (MFI)” value in assay [6] was found to be 124000 MFI.
